In article doi:10.1101/2024.10.25.620210:

Target: α subunit of the Sinapis alba plastid-encoded RNA polymerase (SaPEP) (Sinapis alba) (UniProt Q9XQN8)
Assay: cryo-EM structure

α subunit of the Sinapis alba plastid-encoded RNA polymerase (SaPEP) (from UniProt Q9XQN8 1-327) (natural protein)
stoichiometry N: 2
